Reference: patent US20210163606A1 (ATYR PHARMA, published 2021)

Key:
[1] = target: T1, cynomolgus monkey NRP2 on transfected Expi293 cells (cynomolgus monkey); test: flow cytometry on Cyno NRP2-transfected Expi293 cells
T1 construct: whole, on cells; Plasmid bought from Origene; transient transfection; also called Cyno NRP2
Experimental: Binding of a-NRP2 to cynomolgus monkey NRP2-transfected Expi293 cells. Cynomolgus monkey (cyno) NRP2-transfected Expi293 cells were collected by centrifugation at 300 g for 5 minutes, and washed twice by DPBS (with calcium and magnesium, ThermoFisher Cat #14040133).
Washed cells were added to a 96-well V-bottom plate (ThermoFisher Cat #1424572) at 100,000 cells/well in 50 μL of DPBS added with Zombie Violet viability stain (Biolegend Cat #423114, diluted at 1:500). From this step on, cells were protected from light. Cells were kept at room temperature for 10 min and pelleted down at 300 g for 5 minutes at 4° C. Supernatants containing Zombie Violet were discarded, and without washing, 30 uL of antibodies diluted in the flow wash buffer (FWB, DPBS plus 2% FBS and 0.1% sodium azide to inhibit receptor internalization) were added to the cells. For a-NRP2 staining on Cyno NRP2-transfected Expi293 cells, in-house human anti-NRP2 antibodies were tested at final concentrations of 0.006-100 nM at 4-fold dilutions. For each test, NRP2 over-expression on the cell surface was validated by a-NRP2 staining (10 μg/mL R&D #AF567 a-NRP2) in separate wells. Binding was allowed to proceed on ice for 40-60 minutes. Cells were then pelleted at 300 g for 5 minutes at 4° C., supernatants removed, and cells washed twice by adding 150 μL of FWB and centrifuging the cells again in the same conditions. To detect a-NRP2 binding on the cell surface, Cy3-conjugated goat anti-human IgG Fc or AF647-conjugated donkey anti-goat IgG (Jackson ImmunoResearch Cat #109165098 & 705605147) was added to the cells at a final concentration of 3 μg/mL in 30 μL of FWB. After 30-40 minutes of incubation on ice, cells were pelleted at 300 g for 5 minutes at 4° C. and supernatants removed, and the cells were washed twice as described previously. […] Cells were then analyzed on FlowJo analysis software by excluding dead cells and gating singlets.
The EC₅₀ of three anti-NRP2 antibodies, each against a distinct domain of NRP2, were measured for binding to Cyno NRP2-transfected Expi293 cells (see Table E2 and FIG. 4).

[2] = target: T2, Cynomolgus NRP2 (aa23-854) with C-terminal Fc-tag (cynomolgus monkey); test: SPR (ProteOn XPR36), antibody captured on anti-human Fab-kappa, cyno NRP2-Fc as analyte, bivalent analyte fit
T2 construct: range 23-854; sensorgrams fitted to a bivalent analyte model; also called Cynomolgus NRP2 antigen protein
Experimental: Anti-NRP2 antibody binding and affinity measurements. […] SPR experiments were conducted on a Bio-Rad ProteOn XPR36 Protein Interaction Array instrument. Biotinylated anti-human antibody (ThermoFisher Cat #7103302100) was immobilized on ProteOn NLC sensor chips. Anti-NRP2 antibodies were subsequently flowed over and captured by the anti-human antibody. Cynomolgus NRP2 antigen protein was flowed over the captured antibody at varying concentrations (150, 50, 16.67, 5.56, 1.85 nM). The sensor chip surface was regenerated between each analyte run to remove anti-NRP2 antibodies and NRP2 protein. Data was double referenced against a surface with no anti-NRP2 antibody captured (immobilized anti-human antibody only) and a buffer only blank. Affinity constants were derived by globally fitting sensograms to a bivalent analyte interaction model in the ProteOn manager software. For each anti-NRP2 antibody, data from the multiple NRP2 concentrations was fit as a single data set with dissociation rate constant (kd), association rate constant (kₐ) and Rₘₐₓ values as global parameters. The reported binding affinity is the equilibrium dissociation constant (KD) calculated from kd/kₐ. [0681] Running buffer: 50 mM HEPES, 300 mM NaCl, 5 mM CaCl₂, 0.005% Tween-20, pH 7.4 [0682] Immobilized antibody: CaptureSelect Human Fab-kappa Kinetics Biotin Conjugate, Thermo Fisher Cat #7103302100 [0683] Antigen: Cynomolgus NRP2 (aa23-854) with C-terminal Fc-tag [0684] Regeneration buffer: 10 mM glycine pH 2.0

EC50 [1]: 2.9 nM
Kd [2]: 0.032 nM
B1: aNRP2-10v10 (antibody, V domains shown)
VH: EVQLVQSGAEVKKPGATVKISCKVSGFNIKDYYVHWVQQAPGKGLEWMGRIDVEDDETKYAPKFQGRVTITADTSTDTAYMELSSLRSEDTAVYYCATPIYGAREAWFAYWGQGTLVTVSS
VL: DIQMTQSPSSLSASVGDRVTITCTASSSVSSSYLHWYQQKPGKAPKLLIYRTSNLASGVPSRFSGSGSGTDFTLTISSLQPEDFATYYCHQYYRSPPTFGGGTKVEIK
